In assay [1] the target is Bin1b SH3 domain (zebrafish), N-terminally His-tagged (zebrafish). Kind of assay: ITC. A general note: Isothermal titration calorimetry measures the heat released or taken up as one component is titrated into another.
Assay [2] concerns the target Full-length zebrafish Cavin4b (Cavin4b-FL), His-ubiquitin tagged (zebrafish) (UniProt Q5PQY9). Kind of assay: ITC.

From paper PMC8513623 come the findings set out here.

The term Kd denotes a measure of binding affinity in units of concentration. In assay [1], “Cavin4b PRD peptide (zebrafish Cavin4b proline-rich peptide) (from UniProt Q5PQY9 271-286)” registered a Kd of 61.7 µM.
Still for that read-out and setting: then “Chikungunya virus (CHIKV) proline-rich peptide”, with 0.0889 µM.
For the substance “Bin1b SH3 domain (zebrafish), N-terminally His-tagged (domain or fragment)”, the Kd in assay [2] amounted to 55.9 µM. That is a double-digit micromolar value.
